± gives the uncertainty stated by the source.
Test: protein stability index of a GFP-peptide fusion (yeast GPS) (PSI 1-4); higher = more stable; sorted into four equal gates, so the index is relative within each strain
Method in brief: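 For each peptide, the protein stability index sums the read frequency in every gate after multiplying it by the gate number. Read frequencies came from plasmids that were PCR-amplified from each gate and Illumina-sequenced, with reads assigned to strains by barcodes. The gates were four equal bins of GFP/Cherry fluorescence ratio applied to mid-log yeast in leucine-free medium carrying a pooled library of tiled 17-residue yeast protein peptides fused downstream of GFP on a Cherry-expressing plasmid.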

Sequence | protein stability index (pdr5∆) | protein stability index (san1∆) | protein stability index (ubr1∆) | protein stability index (doa10∆)
YYQRLRHMVDDKIHARA [RPB2] | 2.84 ± 0.28 | 3.12 ± 0.12 | 2.77 ± 0.15 | –
SRKETSRTATWLKNKFA [BRR2] | 1.29 ± 0.041 | 1.67 ± 0.11 | 1.49 ± 0.063 | 1.37 ± 0.057
PLIWQLLQSSIINKLIH [POP3] | 2.38 ± 0.062 | 2.01 ± 0.096 | 1.84 ± 0.028 | 2 ± 0.059
QQNIKFRRDFLLREYDI [YJL039C/NUP192] | 2.57 ± 0.055 | 2.9 ± 0.045 | 2.63 ± 0.037 | 2.5 ± 0.058
TNTSKQFQKARNNVMLL [SRB8] | 3 ± 0.066 | 2.94 ± 0.06 | 2.92 ± 0.083 | 2.65 ± 0.14
TADKIRIHAKNFEAALF [GAL11] | 2.05 ± 0.065 | 1.51 ± 0.11 | 2.29 ± 0.055 | 2.13 ± 0.068
ISPLMKSQYNMVLRNVM [SRB8] | 2.12 ± 0.12 | 2.79 ± 0.1 | 2.84 ± 0.11 | 2.32 ± 0.068
QAGVTKASVTIVFDNTD [SMC2] | 2.76 ± 0.058 | 2.73 ± 0.053 | 3.09 ± 0.047 | 2.23 ± 0.071
VPCDRIEKSRLFSEKTI [SNF6] | 2.78 ± 0.058 | 2.62 ± 0.096 | 2.2 ± 0.044 | 2.58 ± 0.11
MSDHSLDKLNCAINSKS [RRP6] | 2.8 ± 0.047 | 2.59 ± 0.051 | 2.83 ± 0.036 | 2.49 ± 0.057
MQTALRRLPEDESYARA [QCR7] | 2.5 ± 0.066 | 2.34 ± 0.05 | 2.39 ± 0.044 | 2.78 ± 0.058
KYKSNTNNMEKIIEDLR [SMC2] | 3.23 ± 0.055 | 3.23 ± 0.034 | 3.2 ± 0.034 | 3.21 ± 0.061
IKIFELKLPADATTWRY [IRR1] | 2.06 ± 0.049 | 2.26 ± 0.08 | 2.39 ± 0.046 | 2.03 ± 0.056
GRPETYIWRYLPAPPVC [RPO31] | 1.57 ± 0.12 | 1.17 ± 0.16 | 2.02 ± 0.1 | 1.5 ± 0.18
DDSDNVMSSDDENAPVA [PRE10] | 3.42 ± 0.11 | 3.49 ± 0.11 | 3.11 ± 0.14 | 3.12 ± 0.087
IMSTEAHVNKVTEETTK [SIR4] | 2.89 ± 0.059 | 2.97 ± 0.04 | 2.85 ± 0.063 | 2.77 ± 0.09
SESQLNSTLKKVESQET [YCS4] | 3.4 ± 0.22 | 3.31 ± 0.1 | 3.04 ± 0.29 | 2.62 ± 0.18
GTGKPEAIHDMFTYSQE [RPN2] | – | 3.12 ± 0.071 | 2.72 ± 0.11 | 2.8 ± 0.16
RRVYNRVLETTLVEFET [BRN1] | 2.86 ± 0.098 | 2.69 ± 0.17 | 1.7 ± 0.071 | 2.21 ± 0.068
QESFNSVQNLDQLLTDL [NUT1] | 3.2 ± 0.095 | 3.04 ± 0.049 | 3.17 ± 0.068 | 3.22 ± 0.092
IQSKRLRNKIAGYTTHL [RPS17A] | 3.41 ± 0.088 | 3.23 ± 0.065 | 3.36 ± 0.072 | 3.16 ± 0.1
SSSIKSTGPTGAVSLNP [RRP4] | 3.37 ± 0.048 | 3.231 ± 0.027 | 3.151 ± 0.031 | 3.24 ± 0.035
IAINFTVNHSEKFPNDV [RPP1] | 2.87 ± 0.047 | 2.95 ± 0.051 | 3.02 ± 0.058 | 2.68 ± 0.068
LNLFSNVLKAPFIKSES [SIR4] | 1.75 ± 0.087 | 1.26 ± 0.13 | 1.79 ± 0.056 | 1.67 ± 0.061
ILDFGPGGASGLGVLTH [FAS1] | 2.74 ± 0.092 | – | 2.84 ± 0.2 | 2.82 ± 0.082
DIILGQNIKAPSVKRQK [PRP8] | 2.35 ± 0.078 | 1.53 ± 0.16 | 2.51 ± 0.072 | 2.44 ± 0.081
ILKRDFELVSDLSYIEF [ECM29] | 2.67 ± 0.078 | 2.58 ± 0.072 | 2.76 ± 0.054 | 2.54 ± 0.079

Sequence | protein stability index (pdr5∆) | protein stability index (san1∆) | protein stability index (ubr1∆) | protein stability index (doa10∆)
HKLVFVVRIKGINKIPP [RPL7A] | 1.57 ± 0.046 | 1.52 ± 0.094 | 1.64 ± 0.053 | 1.4 ± 0.038
IEITNSNDLCSQIFDQL [SRB8] | 2.96 ± 0.074 | 2.69 ± 0.059 | 2.74 ± 0.043 | 2.67 ± 0.057
QSQLNVTLSQLVSVTST [MED8] | 1.79 ± 0.026 | 1.44 ± 0.049 | 1.3 ± 0.019 | 1.39 ± 0.025
VFVGSGKGTGKTAMAEL [BRR2] | 3.54 ± 0.15 | 3.44 ± 0.071 | 3.41 ± 0.098 | 3.29 ± 0.12
ASVYPEYALPKTYNKLH [RPS26A] | 2.51 ± 0.053 | 2.79 ± 0.059 | 2.71 ± 0.031 | 2.92 ± 0.076
VKYMPEQKITEIEDGQD [RPO21] | 3.12 ± 0.099 | 2.98 ± 0.098 | 3.19 ± 0.069 | 3.19 ± 0.12
PSYAERQSSDESDNYRL [YML031W/NDC1] | 2.32 ± 0.043 | 2.75 ± 0.057 | 2.7 ± 0.036 | 2.62 ± 0.049
LLAQLNGTVNNNSALSN [RPT3] | 2.25 ± 0.14 | 1.88 ± 0.097 | 2.34 ± 0.075 | 3.23 ± 0.25
LFPVAAQDSLTVTIASS [RPB8] | 1.48 ± 0.049 | 1.32 ± 0.16 | 1.61 ± 0.041 | 1.22 ± 0.053
KKVVKKAFEERHQAGKN [RPL27A] | 3.83 ± 0.22 | – | – | –
EKENRFEIVDREKNSLE [SMC4] | 2.93 ± 0.11 | 3.1 ± 0.1 | 3.3 ± 0.085 | 2.63 ± 0.09
KVDIFEIPETGEYSVKL [FAS2] | 3.37 ± 0.08 | 3.27 ± 0.046 | 2.99 ± 0.049 | 3.17 ± 0.093
ADNKEDVKKPFSFGTSQ [YLR335W/NUP2] | 3.09 ± 0.096 | 2.75 ± 0.16 | 3.13 ± 0.099 | 3.42 ± 0.1
LQKAVRGHVLQFEWHQN [SNF2] | 1.34 ± 0.063 | 1.37 ± 0.16 | 1.35 ± 0.058 | 1.27 ± 0.043
IGKMYDEYLGSHTDQPA [NNF1] | 2.9 ± 0.17 | – | 3.28 ± 0.086 | 3.37 ± 0.16
SLASCLRSTEYSKSFEQ [POP1] | 2.88 ± 0.13 | 2.89 ± 0.083 | 2.76 ± 0.12 | 2.58 ± 0.11
FTPKLIYDFITLFSSIE [ECM29] | 2.1 ± 0.056 | 2.17 ± 0.11 | 2.38 ± 0.053 | 2.06 ± 0.073
TLKLRARQRGKLKKSEE [SRP68] | 3.27 ± 0.11 | 3.36 ± 0.067 | 3.67 ± 0.21 | 3.44 ± 0.15
FDEEFDPFKTSSFNKRS [IRR1] | 2.92 ± 0.061 | 2.81 ± 0.11 | 2.78 ± 0.084 | 2.76 ± 0.083
NDDSSSMNATMRNFSKQ [YDL088C/ASM4] | 3.14 ± 0.11 | 2.71 ± 0.13 | 2.93 ± 0.091 | 2.76 ± 0.087
FLSQGLHVVITLLREVV [CSN12] | 1.73 ± 0.059 | 1.91 ± 0.093 | 2.13 ± 0.057 | 1.49 ± 0.06
LDDLQVILAKNENETRD [PGD1] | 3.05 ± 0.08 | 2.93 ± 0.14 | 3.38 ± 0.078 | 3.27 ± 0.099
FIFQIIEITNSNDLCSQ [SRB8] | 1.62 ± 0.049 | 1.71 ± 0.1 | 1.21 ± 0.075 | 1.39 ± 0.059
AKTLIPSLNNKISDDEL [RPB4] | 3.1 ± 0.069 | 3.06 ± 0.06 | 3.19 ± 0.061 | 2.98 ± 0.069
QQAQAQAQAQAQAQAQA [GAL11] | 3.06 ± 0.17 | 2.92 ± 0.081 | 3.12 ± 0.12 | 2.78 ± 0.097
SGAITFVNETPRVIEPV [PRP8] | 1.96 ± 0.27 | – | 1.11 ± 0.045 | –

Reference: the supplement of paper PMC9732359
